This data set is described as follows: soluble on expression in E. coli; label from the status in PepcDB or PDB records.
As to “MKIKSIEPTPSPNTMKVILTEELPAGKSNNYKPEQAEGAPLVIAEILKIDGVKGVYHVADFLAVERNARYDWKDILPQVRTAFGMESAESAEENRSDQESFGEVKVFVQMFSGIPMQVKLTDGEREERFGLPERFQQAILKLRSEASNVVFERAWKEQGVRFGDFDEIGHDVTEELQAAYSDERLKRLTEAAAQGKGEAKQAVQRKAYKVTLDMLDDEDWKKRYAHLEQMDPKEEDIPVLQKALDDPKVSIRRQAVVYLGMIETPDVLPLLYKALEDKAVSVRRTAGDCLSDIGDPQAIPAMIKSLSDSSKLVRWRAAMFLYEVGDESAIEALRAAEDDPEFEVSLQVKMALERIEHGEEAKGSVWKQMTESRKKGE”, the “soluble on expression in E. coli” value is “soluble”. In the case of “MATQINQKFGSKYKSNRKDETPMFEVRNGKSVIKNSGNHEATVNRTLDFHMTKLFQWEEQSDAIESSYVCALCHENGEKRELFGPYYATHNPIKYWPSFLAKKPTAKKPTKIELWFHGSCVLWAPNVHLHGNQLTNLDNQIDIFWSQTCIVCRKTGAAISVQNKKNTFIHYPCAKNKGYKLDEHALLCNS”, the “soluble on expression in E. coli” value is “soluble”. For “STGKKPKHHVLSHDIIPASKPIAEKLQIQPESPVVELKRILYNDDQPLTFEVTHYPLDLFPGIDTFIADGVSMHDILKQQYKVVPTHNTKLLNVVYAQQEESKYLDCDIGDALFEIDKTAFTSNDQPIYCSLFLMHTNRVTFTINSPYT”, the “soluble on expression in E. coli” value is “soluble”. With “MGSDKIHHHHHHMTVQRREKGSSITRVLEIIEAISRAERPMSPAELAFLLDIPKPSIHRLLQQLEADNYVQINMRGLLVPGDRMHSIALGVLHSSRFKALRQAILKKLAETIGETCGIAIPDGIEMIYYDRVQTNWPLRVNLPVGSHTPVACTASGKLYLSSLPKERRHRIIGKLSLEKLARNTLIESESLEKELINIQANELGTDNEEFIDGMVACSVPIKDQDGKLFACLFTHAPVIRKSLDELLAFEPALRHAAIELGDLLKEQ”, the “soluble on expression in E. coli” value is listed as “not soluble”. Consider “MAHHHHHHMRTSAAVLSLFRGQRRLSCTMTAPLATRRFCRSTGDGLQKDWRPLSTTPHQPGPDTPASPSSSKSSANLDACEGALRAAPEGPASSKRGSSFASLALQRGSGEKANRMDRTAGLYKHTIVTETDKAPTGVARSATASSVSTGAGLTAERKKYATIPLRHCGTRAEPGNGSRSASSPPSASNSKREMTAQTEAPKTIKTAARPQDGPMVPDYGPLRATGLWSVEEVLDESKKTVDFRRIDDVESEIIEDHTNAEEALVPYAEEEAWKHKLMFEYKFKKTPKHLTWKEMGEEIECMDCVIELDEHRPEELFTIFFYFTDKKTGTRDLVWSARNDVSYSEGFTDLLAAIGACLGRSDVHRTIRFDDGVGCTRDLTFRKRSRYTSDVYVAFRPPEKYDKFQRKEEKDEYEASMEREGMSTWGYHPSLMDPEFSELDFKDPEGTYEVAISAHGFSFVVLRAIGRLLARPMKDFYRPSQLMRTAKVRTEDEIGFTHALKGWLGVDEQLYPHYTPIEALQDHWLGKDAPFSLCAIVNKLREMNYLKKENPEFQSWLSVRSHDTHLAIRNMGVKLLGVGASTLFVPVSHNATVNRLLPKPQQRRLESRFSLNAVLGLPDETRKLKDFKQITGHDRITDVPTSSTRETATIASPAQDEASVKNSPT”, for which the “soluble on expression in E. coli” value is given as “not soluble”.

As for “FDAVPDLIAILDTEYRIVRANRAMAARLGITPEECVGLTCYRVIHGTDEPPSFCPYRQLLKDGIEHTEEVREDSLGGDFILSVLPLHDSKGKIIGCTHFARDIN”, the “soluble on expression in E. coli” value is listed as “not soluble”. The same measure for “MNFKESRAIYLQIADRICDDILLGQYEEEGRIPSVREYASIVEVNANTVMRSYEYLQSQEVIYNKRGIGFFVASGAKMLIHSLRKEQFLKEEVGSFFRQLYTLGISIKEIEKMYYEFIQRQNQ”: “soluble”. As for “ETEQSVDLETVSVVGKSRPRATSGLLHTSTASDKIISGDTLRQKAVNLGDALDGVPGIHASQYGGGASAPVIRGQTGRRIKVLNHHGETGDMADFSPDHAIMVDTALSQQVEILR”, the “soluble on expression in E. coli” value is reported as “not soluble”. With “MGSDKIHHHHHHMINRELYMEQITPFIDKPFVKVITGIRRCGKSVVLRLIREELLRRGVSEDYIIYMNFESFEWIDMKEAKALYAHIREATKASGKYYILLDEIQEVTDWEKAVNAFLVDLDVDIYVTGSNSRLLSSEFSTYLAGRYVAFHIMTLSFREYLLFHDLPLTISVSDRKTEFLKYLRMGGFPAIHTANYDYNAIYKIVYDIYSSVILRDTVQRHSIRNVEMLERVVKFVFDNIGNKLNAKNIADYFKSQQRKVDINTIYNYLNALDSAFVIQRIPRYDIKGKEILQTNEKYFVSDLSLIYSVMGYRDRLIGGMLENLVCMELKRRGYEVYVGKQDEKEVDFVAIRREEKIYVQVTYQLGLQATIDREFAPLLAIDDHYPKYVVSMDDLWQDNIEGVKHRHIADFLLDEW”, the “soluble on expression in E. coli” value is recorded as “not soluble”. The same measure for “MILSVTFSPSEVPLAGAIASISSIKIIAGAACLAFLKISLILFSLSPTHLLNTSGPLTAMKLASLSVATALAKRVLPVPGGPYNKTPLGGVIPSFLNALGYFSGHSTASLSSCFTSSNPPMSSQWTFGTSMRTSLKAEGSTIFKASLEHHHHHH”: “not soluble”; for “MIEDYALIGDMQIAALVCQDGTVDWLCLPRFDSHAVFAGLLGTEEHGFWRLGPAHASDAEPPRASRRTYRGDSLILESEWDTPRGTVRVTDFMPPRDGAPQLIRIVEGVTGRVPMRSALEHHHHHH”: “soluble”. The same measure for “MGSDKIHHHHHHMDIKLKDFEGPLDLLLHLVSQYKVDIYEVPIVEVIEQYLNYIETLQVMKLEVAGDYMLMASQLMLIKSRRLLPKVVEHIEEDLEQDLLEKIEEYSRFKAVSQALAKQHDQRAKWYSKPKQELIFEDAILQEDKTVMDLFLAFSNIMAAKRAVLKNNHTVIERDDYKIEDMMASIKQRLEKENVIRLSAIFEECQTLNEVISIFLASLELIKLHVVFVEQLSNFGAIILRKEKK”: “not soluble”. For the sequence “MLVVSIAGSPSVRSRSGVLLERARDWLSRRGVEVASHQVLDFPAEDLLRARLDSPPVLALAEQIGRADGLLVATPVYKASFSGALKVLLDLLPERALEHKVVLPFATGGSSAHMLAVDYALKPVLAALKAQEVLHGVFAVDKQIAYATESDPARLEPVLEQRLENALETFHLALSRRPQPIDPQLLNERLVNARWSI”, the “soluble on expression in E. coli” value was “soluble”. Turning to “MSLETWYDFDLPLDRTDPITIIHFNDVYNIESRCDGTGGVSRFVTALQSFQHKHPLILFSGDVLNPSVMSTYTRGRHMVPFLNLLKIHTACFGNHDFDFGIDELEYAVGSCSFPWLISNVFEKTGQTGLPLANGMKYRLFEWQGIRVGIIGLVEKEWLDTLACIDKDDVVYVDFVEAANCLCRILRQKECELIIALTHMRAPNDERLAKEAEDIDLILGGHDHDYYGLQRIGNIPVVKSGTDFRDFTVITIHPGQGSRLDASSLPTPPTQNKFGSTTFVSEEAARREAAVTAEMFKGPLLPTTVEGGEEVMPFFLGGSIVEWSRVRVDPERFEKNKHVELLVKKYEQNLKKQMKQILVDAACDLETRFSVIRTSESNVGNWLCDLMRRECRADIAILNSGTIRSDCLFPPGPFRFGDLAAMLPMTDTLCVIAVHGNVLLQALENAVSQLPKTEGRFLQVAGIRFAFNSSKPVGQRVVRDSVKVAQDACGRVHSGAATPVGEGKKSESDYLPLDENRVYSVATKTYLAQGRDGFHMLSKCPVLVEDELLPPLPTMVRSALSMAEMANGIKRPHSRITFKRLTEGHHHHHH”, the “soluble on expression in E. coli” value was “not soluble”. With “MAEPKKLANGKWQLRFKYKDSITNEWKNKMITRSTKKACRDAETEFKSKIMRGENTEAIKLLDFYDIWVDTFKKNKVSAGRMQKIALTRKNLHDFFGDKQLLKGVTKVKYQQWINWLAKPGNINEKGLAVETVSNRHNIVKSMFLEALDMQYIHSNPTRNIKLTGQVPEKKSNKTISIDDLTKFKEALLSRENTTSKYFILVQLYTGARYQEVAALTWDSIDESNEVIKIKNAYKYDAGQYRIGPTKSEAGVRNIDVPSSLFYYLKKYEMEQKKKILRGDLRNPQNFAFVSKKNSWPISNSSVNKYIKETCELANIERISSHSFRHARSDLLILAEADPIYIKTQLGHKEIIQSYEYASATEANRKKNKEKYENKYKDIL”, the “soluble on expression in E. coli” value is “not soluble”. As for “MGSDKIHHHHHHMSDLKVLVIGYMHPRNDKRVFRTVQALSKRSEVIYQYWTEKEELPFKENNIRYIPVKCSNRGNIFQKAVKRKQVDEKIRHLVETEDYDILYMHHFPATKPLKPFVVAKKRGKKIVYDIHEYHPQNFLSTLPRPLSDLKGFVMWRIFKKQLQLSDLCIFVSEETRNDVVAKTGLDPEKTFIVPNYASMKIEPDPDKKKMEIVLVGKTPRNLIHEKKLIRALVERGFSFRIIGMDSEAFSDVPHTYTSFLPYEKMMEELSKSMFSLISYKPTGKEDKNYLYSLPHKFYDSIAAGTPVIVKNSFVSMAKMVEDLGIGVVIDPANVEESLKRIENACQRYEEILENIRRHQEGFVWDEKKEEEFLERVMG”, the “soluble on expression in E. coli” value is “not soluble”. Turning to “MRYERIKYILLFSLMHLVYSNSTFESNPEVRNKSNIYDLPPLLDVTSVNEETPIVKRPINERIENLEFDPRFEIDQAKLEISEDKLGSGFFGEVCYGLLSMRTSNTETDTLQKLSVAVKQSNDPTQENQEKMIEDETKLMCAIGRNPNILAIIGAVTANSGSARNLLIVEFVECGDLLKFLEEKKSIFKDELVYEKNGYLLPKSIRRKTYMFNENEDDVIEESLDSLCTSDLLSFSYQIAEGMEYLASIPCVHRDLALRNVLLNKNKTIRIADFGLARKYQVDGYYRITKGVGTPMPARWMAPEVMREGKCTEKSDVWSYGVSLYEMFSLGELPYSNVSNSDVFEHVVQGNQLPMPQYCHPKMYDRMKQFWNFDATFRPSFSKCVEFFEEHLSVSATNLLEQIQKTLKSEAERQSKLEDWIRRD”, the “soluble on expression in E. coli” value was “not soluble”.

As for “MAILGLGTDIVEISRIQAVVERTGERLARRILSPSEWQHYQQHQQPVRFLAKRFAVKEAAAKAFGTGIRNGLAFNQFEVVNDALGKPTLRLHSRAAELAVELGVKSLHVTLADERRYACATVIIES”, the “soluble on expression in E. coli” value was “not soluble”.

For “MSETPAQCSIKQERISYTPPESPVPSYASSTPLHVPVPRALRMEEDSIRLPAHLRLQPIYWSRDDVAQWLKWAENEFSLRPIDSNTFEMNGKALLLLTKEDFRYRSPHSGDVLYELLQHILKQRKPRILFSPFFHPGNSIHTQPEVILHQNHEEDNCVQRTPRPSVDNVHHNPPTIELLHRSRSPITTNHRPSPDPEQRPLRSPLDNMIRRLSPAERAQGPRPHQENNHQESYPLSVSPMENNHCPASSESHPKPSSPRQESTRVIQLMPSPIMHPLILNPRHSVDFKQSRLSEDGLHREGKPINLSHREDLAYMNHIMVSVSPPEEHAMPIGRIADCRLLWDYVYQLLSDSRYENFIRWEDKESKIFRIVDPNGLARLWGNHKNRTNMTYEKMSRALRHYYKLNIIRKEPGQRLLFRFMKTPDEIMSGRTDRLEHLESQELDEQIYQEDEC”, the “soluble on expression in E. coli” value was “soluble”. Consider “MTQANLSETLFKPRFKHTETSTLVRRFNRGSQPPMQSALDGKNVPHWYRMINRLMWIWRGVDPREILDVQARIVMSDAERTDDDLYDTVIGYRGGNWIYEWAKQAMDWQQKACQEQDAMRSGRYWLHASTLYNIAAYPHLKGDELAEQAQALANRAYEEAAQRLPGSLREMEFAVPGGSPVTAFLHMPKGDGPFPTVLMCGGLDAMQTDYYTLYERYFAPRGIAMLTLDMPSVGFSSKWKLTQDSSLLHQHVLKALPNVPWVDHTRVAAFGFRFGANVAVRLAYLEAPRLKAVACLGPVVHALLSDPQRQSTVPEMYLDVLASRLGMHDASDEALRVELNRYSLKVQGLLGRRCPTPMLSGFWKNDPFSPEEESRLITTSSSDGKLIEIPFNPVYRNFDRALQEITDWINHRLC”, for which the “soluble on expression in E. coli” value is “not soluble”.

Values taken from the DeepSol protein solubility set.
